Measured values taken from US9081017.

Molecular target: TNFR2 (human, endogenous in kidney tissue and cultured EC) (human) (UniProt P20333)
Assay: cell-based or functional assay

TNFR2 (human, endogenous in kidney tissue and cultured EC) (human), sequence (P20333 23-461): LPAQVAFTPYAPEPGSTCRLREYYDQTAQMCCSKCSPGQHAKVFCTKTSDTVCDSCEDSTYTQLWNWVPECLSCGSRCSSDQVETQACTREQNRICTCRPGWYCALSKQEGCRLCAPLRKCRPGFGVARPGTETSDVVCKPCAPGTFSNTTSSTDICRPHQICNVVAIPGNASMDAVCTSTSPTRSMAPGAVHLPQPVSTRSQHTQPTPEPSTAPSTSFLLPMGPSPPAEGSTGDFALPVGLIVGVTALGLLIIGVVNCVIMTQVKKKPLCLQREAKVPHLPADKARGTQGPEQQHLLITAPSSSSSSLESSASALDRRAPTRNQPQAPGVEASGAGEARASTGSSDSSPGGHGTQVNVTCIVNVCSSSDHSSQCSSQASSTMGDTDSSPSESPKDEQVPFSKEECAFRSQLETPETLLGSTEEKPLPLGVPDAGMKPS

- Proliferative index (PI), percentage of PCNA-positive tubular cell nuclei, human kidney organ culture: 50%
Substance: R2-TNF (TNF mutein D143N, A145R) (from UniProt P01375 77-233) (ligand)
